Data from patent publication US20170015742A1 (published 2017).

Legend:
[1] = molecular target: T1, Human PDGF-BB (human, UniProt P01127 82-190); assay: SPR (Biacore), method of Example 1.1
T1 construct: also called hPDGF-BB
Description: (§1) Unreacted moieties on the biosensor surface were blocked with ethanolamine. For kinetic analysis, rate equations derived from the 1:1 Langmuir binding model were fitted simultaneously to multiple antigen injections (using global fit analysis) with the use of Scrubber 2 (BioLogic Software), Biacore Biaevaluation 4.0.1 software or Biacore T100 Evaluation software. Purified antibodies or DVD-Ig molecules were diluted in running buffer for capture across goat anti-human Fc reaction surfaces. Antibodies or DVD-Ig molecules to be captured as a ligand (1 μg/ml) were injected over reaction matrices at a flow rate of 10 μl/minute. During the assay, all measurements were referenced against the capture surface alone (i.e., with no captured antibody or DVD-Ig molecule). […] The equilibrium dissociation constant KD (M) of the reaction between antibodies and the target antigen was then calculated from the kinetic rate constants by the following formula: KD=Koff/Kₒₙ. Binding was recorded as a function of time and kinetic rate constants were calculated. In this assay, on-rates as fast as 10⁶M⁻¹s⁻¹ and off-rates as slow as 10⁻⁶ s⁻¹ could be measured.

[2] = molecular target: T2, Human VEGF-A 165 (human, UniProt P15692 207-395); assay: SPR (Biacore), method of Example 1.1
T2 construct: also called hVEGF165
T2 sequence (P15692 other isoform, or with tags, fused parts or gaps limits assumed): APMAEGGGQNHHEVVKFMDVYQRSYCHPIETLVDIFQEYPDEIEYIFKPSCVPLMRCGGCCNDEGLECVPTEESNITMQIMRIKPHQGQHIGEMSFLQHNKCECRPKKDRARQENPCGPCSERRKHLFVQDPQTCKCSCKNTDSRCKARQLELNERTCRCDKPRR
Description: as §1

T1 sequence (P01127 82-190 limits assumed): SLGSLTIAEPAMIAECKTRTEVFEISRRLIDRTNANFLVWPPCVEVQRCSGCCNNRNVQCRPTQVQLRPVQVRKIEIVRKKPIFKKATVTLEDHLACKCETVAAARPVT

Binder	Kd [1] [pM]	kon [1] [M⁻¹ s⁻¹]	Kd [2] [nM]	binding result [2]	kon [2] [M⁻¹ s⁻¹]
CODV009 (bispecific antibody, human IgG1, kappa, L234A L235A, Anti-human VEGF-A/anti-human PDGF-BB cross-over DVD-Ig (CO-DVD-Ig); also called PR-1571821) heavy: EVQLVQSGSELKKPGASVKVSCKASGYTFTNYGMYWVRQAPGQGLEWMGWINTETGKPTYADDFKGRFVFSLDTSVSTAYLQISSLKAEDTAVYYCARTNYYYRSYIFYFDYWGQGTMVTVSSGEVTLRESGPALVKPTQTLTLTCTFSGFSLSTYGMGVGWIRQPPGKALEWLANIWWDDDKYYNPSLKNRLTISKDTSKNQVVLTMTNMDPVDTATYYCARIESIGTTYSFDYWGQGTMVTVSSGGASTKGPSVFPLAPSSKSTSGGTAALGCLVKDYFPEPVTVSWNSGALTSGVHTFPAVLQSSGLYSLSSVVTVPSSSLGTQTYICNVNHKPSNTKVDKKVEPKSCDKTHTCPPCPAPEAAGGPSVFLFPPKPKDTLMISRTPEVTCVVVDVSHEDPEVKFNWYVDGVEVHNAKTKPREEQYNSTYRVVSVLTVLHQDWLNGKEYKCKVSNKALPAPIEKTISKAKGQPREPQVYTLPPSREEMTKNQVSLTCLVKGFYPSDIAVEWESNGQPENNYKTTPPVLDSDGSFFLYSKLTVDKSRWQQGNVFSCSVMHEALHNAYTQKSLSLSPGK light: EFVLTQSPGTLSLSPGERATLSCERSSGDIGDSYVSWYQQKPGQAPRLVIYADDQRPSGIPDRFSGSGSGTDFTLTISRLEPEDFAVYYCQSYDINIDIVFGGGTKVEIKGGGSGGGDTVLTQSPATLSLSPGERATLSCRASESVSTHMHWYQQKPGQAPRLLIYGASNLESGVPARFSGSGSGTDFTLTISSLEPEDFAVYFCQQSWNDPFTFGQGTKLEIKGGGSGRTVAAPSVFIFPPSDEQLKSGTASVVCLLNNFYPREAKVQWKVDNALQSGNSQESVTEQDSKDSTYSLSSTLTLSKADYEKHKVYACEVTHQGLSSPVTKSFNRGEC	5.6	3.5e+07	26		
CODV007 (bispecific antibody, human IgG1, kappa, L234A L235A, Anti-human VEGF-A/anti-human PDGF-BB cross-over DVD-Ig (CO-DVD-Ig); also called PR-1565085) heavy: not shown light: DFQLTQSPSSLSASVGDRVTITCERSSGDIGDSYVSWYQQKPGKAPKNVIYADDQRPSGVPSRFSGSGSGNSASLTISSLQPEDFATYFCQSYDINIDIVFGQGTKVEIKGGGSGGGDTQLTQSPSSLSASVGDRVTISCRASESVSTHMHWYQQKPGKAPKLLIYGASNLESGVPSRFSGSGSGTDFTLTISSLQPEDFATYFCQQSWNDPFTFGQGTKVEIKGGGSGRTVAAPSVFIFPPSDEQLKSGTASVVCLLNNFYPREAKVQWKVDNALQSGNSQESVTEQDSKDSTYSLSSTLTLSKADYEKHKVYACEVTHQGLSSPVTKSFNRGEC	7.3	2.9e+07	22		
CODV006 (bispecific antibody, human IgG1, kappa, L234A L235A, Anti-human VEGF-A/anti-human PDGF-BB cross-over DVD-Ig (CO-DVD-Ig); also called PR-1565084) heavy: not shown light: DTQLTQSPSSLSASVGDRVTISCRASESVSTHMHWYQQKPGKAPKLLIYGASNLESGVPSRFSGSGSGTDFTLTISSLQPEDFATYFCQQSWNDPFTFGQGTKVEIKGGGSGGGDFQLTQSPSSLSASVGDRVTITCERSSGDIGDTYVSWYQQKPGKAPKNVIYGNDQRPSGVPSRFSGSGSGNSATLTISSLQPEDFATYFCQSYDSDIDIVFGQGTKVEIKGGGSGRTVAAPSVFIFPPSDEQLKSGTASVVCLLNNFYPREAKVQWKVDNALQSGNSQESVTEQDSKDSTYSLSSTLTLSKADYEKHKVYACEVTHQGLSSPVTKSFNRGEC	9.7	2.2e+07		no binding	
CODV008 (bispecific antibody, human IgG1, kappa, L234A L235A, Anti-human VEGF-A/anti-human PDGF-BB cross-over DVD-Ig (CO-DVD-Ig); also called PR-1565086) heavy: not shown light: DTQLTQSPSSLSASVGDRVTISCRASESVSTHMHWYQQKPGKAPKLLIYGASNLESGVPSRFSGSGSGTDFTLTISSLQPEDFATYFCQQSWNDPFTFGQGTKVEIKGGGSGGGDFQLTQSPSSLSASVGDRVTITCERSSGDIGDSYVSWYQQKPGKAPKNVIYADDQRPSGVPSRFSGSGSGNSASLTISSLQPEDFATYFCQSYDINIDIVFGQGTKVEIKGGGSGRTVAAPSVFIFPPSDEQLKSGTASVVCLLNNFYPREAKVQWKVDNALQSGNSQESVTEQDSKDSTYSLSSTLTLSKADYEKHKVYACEVTHQGLSSPVTKSFNRGEC	7.4	1.7e+07		no binding	
CODV012 (bispecific antibody, human IgG1, kappa, L234A L235A, Anti-human VEGF-A/anti-human PDGF-BB cross-over DVD-Ig (CO-DVD-Ig); also called PR-1571824) heavy: EVQLVQSGSELKKPGASVKVSCKASGYTFTNYGMYWVRQAPGQGLEWMGWINTETGKPTYADDFKGRFVFSLDTSVSTAYLQISSLKAEDTAVYYCARTNYYYRSYIFYFDYWGQGTMVTVSSGGGGSGGGEFVLTQSPGTLSLSPGERATLSCERSSGDIGDSYVSWYQQKPGQAPRLVIYADDQRPSGIPDRFSGSGSGTDFTLTISRLEPEDFAVYYCQSYDINIDIVFGGGTKVEIKGGGSGASTKGPSVFPLAPSSKSTSGGTAALGCLVKDYFPEPVTVSWNSGALTSGVHTFPAVLQSSGLYSLSSVVTVPSSSLGTQTYICNVNHKPSNTKVDKKVEPKSCDKTHTCPPCPAPEAAGGPSVFLFPPKPKDTLMISRTPEVTCVVVDVSHEDPEVKFNWYVDGVEVHNAKTKPREEQYNSTYRVVSVLTVLHQDWLNGKEYKCKVSNKALPAPIEKTISKAKGQPREPQVYTLPPSREEMTKNQVSLTCLVKGFYPSDIAVEWESNGQPENNYKTTPPVLDSDGSFFLYSKLTVDKSRWQQGNVFSCSVMHEALHNAYTQKSLSLSPGK light: EVTLRESGPALVKPTQTLTLTCTFSGFSLSTYGMGVGWIRQPPGKALEWLANIWWDDDKYYNPSLKNRLTISKDTSKNQVVLTMTNMDPVDTATYYCARIESIGTTYSFDYWGQGTMVTVSSGGGGSGGGDTVLTQSPATLSLSPGERATLSCRASESVSTHMHWYQQKPGQAPRLLIYGASNLESGVPARFSGSGSGTDFTLTISSLEPEDFAVYFCQQSWNDPFTFGQGTKLEIKGGGSGRTVAAPSVFIFPPSDEQLKSGTASVVCLLNNFYPREAKVQWKVDNALQSGNSQESVTEQDSKDSTYSLSSTLTLSKADYEKHKVYACEVTHQGLSSPVTKSFNRGEC	1.5	7e+07	0.028		2.7e+06

Continued, values first:

Kd [1] [pM]	kon [1] [M⁻¹ s⁻¹]	Kd [2] [nM]	binding result [2]	kon [2] [M⁻¹ s⁻¹]	Binder
11	1.2e+07	35			CODV005 (bispecific antibody, human IgG1, kappa, L234A L235A, Anti-human VEGF-A/anti-human PDGF-BB cross-over DVD-Ig (CO-DVD-Ig); also called PR-1565083) heavy: not shown light: DFQLTQSPSSLSASVGDRVTITCERSSGDIGDTYVSWYQQKPGKAPKNVIYGNDQRPSGVPSRFSGSGSGNSATLTISSLQPEDFATYFCQSYDSDIDIVFGQGTKVEIKGGGSGGGDTQLTQSPSSLSASVGDRVTISCRASESVSTHMHWYQQKPGKAPKLLIYGASNLESGVPSRFSGSGSGTDFTLTISSLQPEDFATYFCQQSWNDPFTFGQGTKVEIKGGGSGRTVAAPSVFIFPPSDEQLKSGTASVVCLLNNFYPREAKVQWKVDNALQSGNSQESVTEQDSKDSTYSLSSTLTLSKADYEKHKVYACEVTHQGLSSPVTKSFNRGEC
1.8	3.8e+07	0.038		1.1e+06	CODV011 (bispecific antibody, human IgG1, kappa, L234A L235A, Anti-human VEGF-A/anti-human PDGF-BB cross-over DVD-Ig (CO-DVD-Ig); also called PR-1575521) heavy: EVQLVQSGSELKKPGASVKVSCKASGYTFTNYGMYWVRQAPGQGLEWMGWINTETGKPTYADDFKGRFVFSLDTSVSTAYLQISSLKAEDTAVYYCARTNYYYRSYIFYFDYWGQGTMVTVSSGGGGSGGGGSEFVLTQSPGTLSLSPGERATLSCERSSGDIGDSYVSWYQQKPGQAPRLVIYADDQRPSGIPDRFSGSGSGTDFTLTISRLEPEDFAVYYCQSYDINIDIVFGGGTKVEIKGGGSGASTKGPSVFPLAPSSKSTSGGTAALGCLVKDYFPEPVTVSWNSGALTSGVHTFPAVLQSSGLYSLSSVVTVPSSSLGTQTYICNVNHKPSNTKVDKKVEPKSCDKTHTCPPCPAPEAAGGPSVFLFPPKPKDTLMISRTPEVTCVVVDVSHEDPEVKFNWYVDGVEVHNAKTKPREEQYNSTYRVVSVLTVLHQDWLNGKEYKCKVSNKALPAPIEKTISKAKGQPREPQVYTLPPSREEMTKNQVSLTCLVKGFYPSDIAVEWESNGQPENNYKTTPPVLDSDGSFFLYSKLTVDKSRWQQGNVFSCSVMHEALHNAYTQKSLSLSPGK light: EVTLRESGPALVKPTQTLTLTCTFSGFSLSTYGMGVGWIRQPPGKALEWLANIWWDDDKYYNPSLKNRLTISKDTSKNQVVLTMTNMDPVDTATYYCARIESIGTTYSFDYWGQGTMVTVSSGGGGSGGGGSDTVLTQSPATLSLSPGERATLSCRASESVSTHMHWYQQKPGQAPRLLIYGASNLESGVPARFSGSGSGTDFTLTISSLEPEDFAVYFCQQSWNDPFTFGQGTKLEIKGGGSGRTVAAPSVFIFPPSDEQLKSGTASVVCLLNNFYPREAKVQWKVDNALQSGNSQESVTEQDSKDSTYSLSSTLTLSKADYEKHKVYACEVTHQGLSSPVTKSFNRGEC
4	4.1e+07	6.6		57000	CODV010 (bispecific antibody, human IgG1, kappa, L234A L235A, Anti-human VEGF-A/anti-human PDGF-BB cross-over DVD-Ig (CO-DVD-Ig); also called PR-1571823) heavy: EVTLRESGPALVKPTQTLTLTCTFSGFSLSTYGMGVGWIRQPPGKALEWLANIWWDDDKYYNPSLKNRLTISKDTSKNQVVLTMTNMDPVDTATYYCARIESIGTTYSFDYWGQGTMVTVSSGEVQLVQSGSELKKPGASVKVSCKASGYTFTNYGMYWVRQAPGQGLEWMGWINTETGKPTYADDFKGRFVFSLDTSVSTAYLQISSLKAEDTAVYYCARTNYYYRSYIFYFDYWGQGTMVTVSSGGASTKGPSVFPLAPSSKSTSGGTAALGCLVKDYFPEPVTVSWNSGALTSGVHTFPAVLQSSGLYSLSSVVTVPSSSLGTQTYICNVNHKPSNTKVDKKVEPKSCDKTHTCPPCPAPEAAGGPSVFLFPPKPKDTLMISRTPEVTCVVVDVSHEDPEVKFNWYVDGVEVHNAKTKPREEQYNSTYRVVSVLTVLHQDWLNGKEYKCKVSNKALPAPIEKTISKAKGQPREPQVYTLPPSREEMTKNQVSLTCLVKGFYPSDIAVEWESNGQPENNYKTTPPVLDSDGSFFLYSKLTVDKSRWQQGNVFSCSVMHEALHNAYTQKSLSLSPGK light: DTVLTQSPATLSLSPGERATLSCRASESVSTHMHWYQQKPGQAPRLLIYGASNLESGVPARFSGSGSGTDFTLTISSLEPEDFAVYFCQQSWNDPFTFGQGTKLEIKGGGSGGGEFVLTQSPGTLSLSPGERATLSCERSSGDIGDSYVSWYQQKPGQAPRLVIYADDQRPSGIPDRFSGSGSGTDFTLTISRLEPEDFAVYYCQSYDINIDIVFGGGTKVEIKGGGSGRTVAAPSVFIFPPSDEQLKSGTASVVCLLNNFYPREAKVQWKVDNALQSGNSQESVTEQDSKDSTYSLSSTLTLSKADYEKHKVYACEVTHQGLSSPVTKSFNRGEC
